{"source": "the DeepSol protein solubility set"}
{"experiment": "soluble on expression in E. coli; label from the status in PepcDB or PDB records"}
{"sequence": "MSLTEPRQAHRLHILKVALDVPLDGVFDYLSEAPVQIGQRVVVPFGPRRQVGIVVDLADASDVAPAKLKSIIQYFDQEPVLDGEFFSLLKFCADYYQYPYGQALLSALPARLRQTEPARARQQFCYWLNSAGQAADISAIPVRQAVQRRIFAALRAHGRLNEAELAELSPGWRKGLAALRERGWIEEEQVYAGLGSTLHASSVQPELNEEQVLAVQSILQYRDTFRPWLLHGITGSGKTEVYIRLLQAVLEGNQDQALVLVPEINLTPQLEARFRTRLPQFPLVTLHSNLSESERLQNWRLAQTGAARIVIGTRLSVFTPLPGLKFMIVDEEHDTSYKQQDGMRYHARDVALVRAQRRNIPIVLGSATPALETWHNARNGRYGLLTLQQRAVSQSQLPQVNCVDVSRVQMQEGLSPQLLKALKVRLERGEQSLLFINRRGYAPVLLCNACHWIAPCMRCSSRLVVHLRQGFLRCHHCGHEQNIVRQCPSCGNADLHPTGNGTQRLEETLTRLLPEARVLRVDRDSTRRKHALSEMLSAVHVGEVDILVGTQMLAKGHDFPNLTLVGVLDTDSALFSPDFRAAERLFAQLMQVAGRAGRADKPGEVLIQTSFPEHQLFNALRVQDFAAYAASLLQEREVAQFPPCEFLALIKAEANEYGPVQRFLQFAADSARALGTDALVYDPVRPQMERLKGMERGQLLFQAATRQTLQIVLRQLTPQLRAHPLSNKIRWAVDVDPQEEGHHHHHH", "soluble on expression in E. coli": "not soluble"}
{"sequence": "MSLTFYWYPKCGTCRKAKKWLEEHGKEINEIHIAEQPPSKEELKALYEKSGLDLKKFFNTSGMKYRELNLKEKLYHMSEDEQLELLASDGMLIKRPLTTDGEKVTVGFKEDQFEENWA", "soluble on expression in E. coli": "not soluble"}
{"sequence": "MSLTHSCRLSVAPMLDWTDRHCRYFHRLLSAQTLLYTEMVTTGAIIHGRGDFLAYNQEEHPVALQFGGSNPKDLAHCAKLAQERGYDEINLNVGCPSDRVQNGRFGACLMGEPDLVAECVAAMRAVVDIPVTVKTRIGIDDQDSYEFLTQFIATVAEKGGCEQFTIHARKAWLSGLSPKENREIPPLDYPRAYQIKRDFPHLTIAVNGGVKSLEEAKLHLQHLDGVMIGREAYQNPYLLAEVDQQIFGLETPVKKRSQVIHEMMPYIERELSQGTHLGHMTRHMLGLFQNMPGARQWRRHISENAHKPGAGLEVVEQALAKIPYQELGEGHHHHHH", "soluble on expression in E. coli": "soluble"}
{"sequence": "MSLTIFTKERKLLLAVESSCDETSVAVIEDGDKILSNIVASQIKSHQRFGGVVPEVASRHHVEQVTICIEEALTEAKVTPEELSGVAVTYGPGLVGALLIGLSAAKAFAWAHQLPLIPVNHMAGHIYAARFVAPLEFPLMALLVSGGHTELVYMKEDGSFEIVGETRDDAAGEAYDKVGRVLGLPYPSGKEIDALAHEGTDTYQFPRAMLKEDNYDFSFSGLKSAFINTVHNAEQRGEALSTKDLAASFQASVVEVLVTKTIRACQEYPVKQLLIAGGVAANQGLREAMRHAISEQLPAVTLLIPPLKLCGDNAAMIGAAAFIEAEKNHFASYNLNAEPGVSFMTISEEGEGHHHHHH", "soluble on expression in E. coli": "soluble"}
{"sequence": "MSLTKDPEWLTKEFAGNPIRTGRTIEDPDFPRIAITYSIQENEDNSKQIQDEMKDIIKDYNDYYHTAWSIEDIERYNGDINNRLARKKAEFKEFGKQIDLVIVVDRLLTGFDAPTIQTLFVDRNLSYANLIQAFSRTNRTYPGKTKGLIVTFRKPSTMEQNVKDATKLYSEAQEESDLVYPTYDESKKRFKKAHKLLTTLVPNPTDINEHSPLEIRIEFVKAFQELNNTYEALVTYDEYNDDMEKSKVLQEQINTLEEYIGVYNTVKGSLVDEGAQDGPGPDFSGIEFYGENAIKVYDIDSTYIDRLLGTYSANNQNIRDEIEKALQKLKKLEIVKDVYRAMLNAIDTKKIDSEEDILVVKRRFFTESYDKAIKEFANTWFVEGNELHLSAIQYVIGSDPIPNIRGIINSKQFDKYKAIHPDAKPLKYGPEMKRQWRKTLDEVIVPLADELREGHHHHHH", "soluble on expression in E. coli": "soluble"}
{"sequence": "MSLTKIAKVIVDVPLMQTDKPFSYKIPEALLSVITAGSRVHVPFGKGNRLLQGFVVSVDSGSAQHLKTIIDVLDVEPVLNQEQLELADQMRKTVFSYKISILKSMIPNLLNSNYDRLLKPKKGLSQEEKDLIFAGKKQINFSQLNQEIQTKSLSLIQAGKIDIEYLAKDRKTIKTQKCYDVNLEKLSHLLINKRAKKRQELKDYLANHPQSGPLSDLYRLFSREVVHYFIKEAVLNISQVEVNRTQSYFENIIQSDFLDLNPEQQTAVEQITAAIGSSNKPYLLEGITGSGKTEVYLHVIDQTLKLGKTAIVLVPEISLTPQMTSRFISRFGSQVAIMHSGLSDGEKFDEWRKMKSNQAKVVVGARSAIFSPLKNIGAIIIDEEHEATYKQESSPRYHAREVALLRAQYHQAVLVLGSATPSIESRARASRGVYNFLQLSQRANPQAHIPKVKIVDFRDYIGQQKVSNLTPVLLDKIKDRLIKKEQVVLMLNRRGYSSFIMCRDCGYVDNCPNCDISLTLHMDTKTMNCHYCGFLKGIPYNCPNCQSRQIRYYGTGTQKAYDELKQVLPEARILRMDVDTTKRKGAHEKILTKFGRHEADILLGTQMIAKGLDFPNVTLVGVLNADTSLNLPDFRSSERTFQLLTQVAGRAGRANKPGEVLIQTYNPNHYAIQLAREQDYEAFYRYEMRIRKALSYPPYYFTVGLTLSHKDEQEVIKKSYEIVTLIKEGLTDKIKILGPTPKPVARTHNLYHYQIIIKYRFEDQLEIVLNHILDLTQAKENKKLRLIIDHEPQSEGHHHHHH", "soluble on expression in E. coli": "soluble"}
{"sequence": "MSLTKKDVIKLLEQIATYMELKGENTFKISAYRKAAQSLELDERPLDEISDVTELKGIGKGVAEVINDYRETGESQYLQQLQEEVPEGLIPLLKIQGLGSKKIAKLYKELNIVDKASLQVACENGKVSELSGFAKKTEQNILEAVKQLGAKKDRYPIDQMRRLNQEIIDYIDTLNYIDQYSSAGSFRRFKEMSKDLDFIISTDNPKAVQQQLLNIPNKVKEVAVGNTKVSLELAYDDETIGVDFRLIEPRAFYHTLQHFTGSKEHNIRIRQLAKARDEKVSEYGIEQADGTLIQYDSEAKIYEHFNVNFIPPAMREDGSEFDKDLSNIITLDDINGDIHMHTTYSDGAFSIRDMVEANIAKGYKFMVITDHSQSLRVANGLQVERLLRQNEEIKALDKEYSEIDIYSGTEMDILPDGSLDYDDEILAQLDYVIGAIHQSFNQSEEQIMERLANACRNPYVRHIAHPTGRIIGRRDGYKPNIEQLMALAEETNTVLEINANPHRLDLNAEIVRKYPNVKLTINTDAHHTNHLDFMNYGVATAQKGFVTKDRVINALSREAFKDFIENNIKLKKEGHHHHHH", "soluble on expression in E. coli": "soluble"}
{"sequence": "MSLTLAFAYVRASTIEEVRQGSNERQKEAIRQYTYQKGYELEIFEDKAKSGRNTLRPEFERMLKSLDRRPQIVIVSKIDRFARSLSDLLKTLEYLDQNGVGFVSVNDPGIDTTTPNGRLLLQILGAFAEFERNMINSRTKAGREQAQSKGVKFGRPPLKTRNGSFIDRRKVMELKQKGLSARAIAKSLECSTTPILRILRENEGHHHHHH", "soluble on expression in E. coli": "soluble"}
{"sequence": "MSLTLPSEKPATDVAAQCFLNALIRETTDWKLTEYPPDELIIPLDEQKSLHFRVAYFSPTQHHRFAFPARLVTASGSYPVDFTTLSRLIIDKLRHQLFLPVPLCETFHQRVLESHAHTQQAIDARHDWTALREKALNFGEAEQALLTGHAFHPAPKSHEPFNRREAERYLPDMAPHFPLRWFSVDKTQIAGESLHLNLQQRLTRFAAENAPQLLNELSDNQWLFPLHPWQGEYLLQQGWCQALVAKGLIKDLGEAGTSWLPTTSSRSLYCATSRDMIKFSLSVRLTNSIRTLSVKEVKRGMRLARLAQTDGWQMLQVRFPTFRVMQEDGWAGLLDLNGNIMQESLFALRENLLVDQPKSQTNVLVSLTQAAPDGGDSLLVSAVKRLSDRLGITVQQAAHAWVDAYCQQVLKPLFTAEADYGLVLLAHQQNILVQMLGDLPVGFIYRDCQGSAFMPHATDWLDSIGEAQAENEGHHHHHH", "soluble on expression in E. coli": "not soluble"}
{"sequence": "MSLTLRDVAAEAGVSPMTASNALRGKPGVKESTRAKVIAAAKKLNYRINLTASMLKSGRSNIIHVIVNEFDSPFYSKLTQALSNEIVSRGLIPFIEQTQYSPDAAEHALSSNPFSGQLFDGEILHATGLGTNVPLSKLNGGRPFVLLDACEETPTVDAVNFPNEEAERAAMQHLIDRGCRNIAIVGHRFAPRADLAHAQNAFALRLRGACGALSDAGLPYDESMVFEAGDVANGIIAGHAIAERILAARSGHGGTEFDGACCANDFAAFGVIRGLADRGLRVPQDVKVIGFDGVTSGSYTTPALSTIQVDFMQLAKFSVDMLSERIDHGADEALPPRRAIIGYQLVDRESTAEGHHHHHH", "soluble on expression in E. coli": "soluble"}
